In patent publication US5792629A, “Isolated DNA encoding novel protease inhibitory polypeptide” (Mochida Pharmaceutical Co., Ltd., priority 1990, dated 1998):

Key:
[1] = system: trypsin; conditions: literature report; cited from earlier work
[2] = target: plasmin (Homo sapiens, UniProt P00747); conditions: literature report; cited from earlier work
[3] = system: kallikrein; conditions: literature report; cited from earlier work
[4] = target: T1, Human trypsin (Homo sapiens, UniProt P07477); experiment: Human trypsin-inhibiting activity, substrate S-2444; type: biochemical; conditions: purified products, concentration as U/ml bovine trypsin-inhibiting activity based on UTI
T1 construct: purchased Calbiochem
Procedure: The purified sample obtained in Example 1-(5) was dissolved in 100 μl of distilled water. Concentration of this solution was determined based on its bovine trypsin-inhibiting activity using the aforementioned UTI as a standard. The solution was then diluted to various concentration levels with 0.1% BSA/0.2M triethanolamine-HCl buffer (pH 7.8) for the activity measurement. The aforementioned UTI was also diluted in the same manner.
Using the aforementioned synthetic compound S-2444 as a substrate, human trypsin-inhibiting activities of the diluted test samples and the positive control were measured in accordance with the method of Kassell (Kassell B., Methods in Enzymol., vol 19, pp.84-852, 1970) as follows.
Human trypsin (Calbiochem) was dissolved in 0.001M HCl to a concentration of 1,000 SU/ml and the solution was further diluted with 0.1% BSA/0.2M triethanolamine-HCl buffer (pH 7.8) to prepare 1.25 SU/ml of trypsin solution. 2 mM solution of S-2444 was prepared by dissolving it in distilled water.
Next, 100 μl of the test sample or positive control was mixed with 100 μl of the trypsin solution. After incubation at 37° C. for 10 minutes, 50 μl of the S-2444 solution was added to the mixture to start the reaction. The reaction was carried out at 37° C. for 20 minutes and then stopped by adding 50 μl of 50% acetic acid solution to the reaction mixture. Thereafter, absorbance at 405 nm was measured using a spectrophotometer.
In this instance, in order to eliminate absorbance of various solutions in the reaction mixture, a blank solution was prepared by mixing 100 μl of the trypsin solution with 50 μl of 50% acetic acid and then with 100 μl of each test sample or the positive control and with 50 μl of the S-2444 solution.
In this figure, human trypsin remaining activity was expressed by percentage based on the absorbance of a control reaction mixture in which 100 μl of 0.1% BSA/0.2M triethanolamine-HCl buffer (pH 7.8) was used instead of the test sample or the positive control.

[5] = target: FXa (Homo sapiens, UniProt P00742); experiment: Human FXa-inhibiting activity, substrate S-2222; type: biochemical; parameters: purchased American Diagnostica Inc; conditions: purified products, FIG. 25 and FIG. 26
Sequence of FXa (P00742 235-488 limits assumed): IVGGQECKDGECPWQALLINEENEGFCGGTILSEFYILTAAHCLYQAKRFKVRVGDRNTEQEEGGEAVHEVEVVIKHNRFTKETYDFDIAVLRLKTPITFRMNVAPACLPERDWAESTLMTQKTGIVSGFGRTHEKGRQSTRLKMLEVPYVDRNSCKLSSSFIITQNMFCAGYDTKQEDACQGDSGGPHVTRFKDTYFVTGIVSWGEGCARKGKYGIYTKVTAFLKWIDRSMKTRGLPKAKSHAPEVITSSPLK
Sequence of FXa (P00742 41-179 partner limits assumed): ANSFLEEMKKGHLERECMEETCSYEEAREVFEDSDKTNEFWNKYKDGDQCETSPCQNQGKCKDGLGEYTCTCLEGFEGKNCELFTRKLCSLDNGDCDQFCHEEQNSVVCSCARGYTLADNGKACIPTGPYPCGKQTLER
Procedure: The purified sample obtained in Example 1-(5) was dissolved in 100 μl of distilled water. Concentration of this solution was determined based on its bovine trypsin-inhibiting activity using the aforementioned UTI as a standard. The solution was then diluted to various concentration levels with 0.1% BSA/150 mM NaCl/5 mM CaCl2 /50 mM Tris-HCl buffer (pH 8.3) for use in the activity measurement. The UTI was also diluted in the same manner. Using a synthetic compound S-2222 (Daiichi Pure Chemicals Co., Ltd.) as a substrate, human FXa-inhibiting activities of the diluted test samples and the positive control were measured in accordance with the method of Ohno et al. (Ohno,H. et al., Thromb. Res., vol.19, pp.579-588, 1980) as follows.
Human FXa (American Diagnostica Inc.) was dissolved in distilled water to a concentration of 10 PEU/ml and the solution was further diluted with 0.1% BSA/150 mM NaCl/5 mM CaCl2 /50 mM Tris-HCl buffer (pH 8.3) to prepare 0.1 PEU/ml of FXa solution. 4 mM solution of S-2222 was prepared by dissolving it in distilled water and the solution was further diluted with 0.1% BSA/150 mM NaCl/5 MM CaCl2 /50 mM Tris-HCl buffer (pH 8.3) to obtain 2 mM solution of S-2222.
Next, 25 μl of the test sample or positive control was mixed with 100 μl of 0.1% BSA/150 mM NaCl/5 mM CaCl2 /50 mM Tris-HCl buffer (pH 8.3) and 25 μl of the FXa solution. After incubation at 37° C. for 10 minutes, 100 μl of the S-2222 solution was added to the mixture to start the reaction. The reaction was carried out at 37° C. for 30 minutes and then stopped by adding 50 μl of 50% acetic acid solution to the reaction mixture. Thereafter, absorbance at 405 nm was measured using a spectrophotometer.
In this instance, in order to eliminate absorbance of various solutions in the reaction mixture, a blank solution was prepared by mixing 25 μl of the FXa solution with 50 μl of 50% acetic acid and then with 25 μl of each test sample or the positive control, 100 μl of 0.1% BSA/150 mM NaCl/5 mM CaCl2 /50 mM Tris-HCl buffer (pH 8.3) and with 100 μl of the S-2222 solution.
In this figure, human FXa remaining activity was expressed by percentage based on the absorbance of a control reaction mixture in which 25 μl of 0.1% BSA/150 mM NaCl/5 mM CaCl2 /50 mM Tris-HCl buffer (pH 8.3) was used instead of the test sample or the positive control.

Sequence of plasmin (P00747 581-810 limits assumed, species assumed): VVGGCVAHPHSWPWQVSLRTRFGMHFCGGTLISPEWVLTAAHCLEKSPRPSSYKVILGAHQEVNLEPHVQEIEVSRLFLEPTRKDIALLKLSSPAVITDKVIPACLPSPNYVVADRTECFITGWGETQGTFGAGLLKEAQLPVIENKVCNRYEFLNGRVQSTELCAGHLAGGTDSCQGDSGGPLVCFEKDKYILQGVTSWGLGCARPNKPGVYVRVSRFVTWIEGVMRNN
Sequence of plasmin (P00747 97-580 partner limits assumed, species assumed): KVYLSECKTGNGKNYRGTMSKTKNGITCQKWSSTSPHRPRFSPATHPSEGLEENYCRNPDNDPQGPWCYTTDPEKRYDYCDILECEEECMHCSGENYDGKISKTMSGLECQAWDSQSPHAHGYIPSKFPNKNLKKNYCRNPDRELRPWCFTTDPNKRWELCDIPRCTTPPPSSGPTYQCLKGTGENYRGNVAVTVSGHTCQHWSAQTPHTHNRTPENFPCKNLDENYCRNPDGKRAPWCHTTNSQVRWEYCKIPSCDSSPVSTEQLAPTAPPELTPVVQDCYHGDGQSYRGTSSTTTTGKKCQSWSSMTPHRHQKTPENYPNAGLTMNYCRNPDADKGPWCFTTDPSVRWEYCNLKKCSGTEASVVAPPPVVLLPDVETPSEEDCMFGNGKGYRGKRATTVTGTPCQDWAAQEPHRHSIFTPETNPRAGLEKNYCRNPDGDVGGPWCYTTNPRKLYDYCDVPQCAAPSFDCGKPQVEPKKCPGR

Molecule	inhibition of trypsin [1]	inhibition of plasmin [2]	inhibition of kallikrein [3]	human trypsin-inhibiting activity compared with polypeptides TN70 and TL66 [4]	human FXa-inhibiting activity relative to polypeptide TN70 [5]
aprotinin [reference compound]	inhibits	inhibits	inhibits		
Y46E: polypeptide defined by the amino acid sequence of formula 5, purified from culture supernatant of E. coli JE5505 (pM575B) (protein) TVAACNLPIVRGPCRAFIQLWAFDAVKGKCVLFPYGGCQGNGNKFESEKECREYCGVPGDGDEELLRFSN				almost the same	about 7 times
Q19K: polypeptide defined by the amino acid sequence of formula 6, purified from culture supernatant of E. coli JE5505 (pM576) (protein) DDAACNLPIVRGPCRAFIKLWAFDAVKGKCVLFPYGGCQGNGNKFYSEKECREYCGVPGDGDEELLRFSN				almost the same	about 5 times
